According to US20070178491, “Compositions and Methods for Synthesizing Nucleic Acids” (INVITROGEN CORPORATION, published 2007):

T1: AccuPrime protein (AccuPrime Protein I; MjaSSB, Mja RPA SSB) (Methanococcus jannaschii, UniProt Q58559 Q58559:1-645)
T1 sequence: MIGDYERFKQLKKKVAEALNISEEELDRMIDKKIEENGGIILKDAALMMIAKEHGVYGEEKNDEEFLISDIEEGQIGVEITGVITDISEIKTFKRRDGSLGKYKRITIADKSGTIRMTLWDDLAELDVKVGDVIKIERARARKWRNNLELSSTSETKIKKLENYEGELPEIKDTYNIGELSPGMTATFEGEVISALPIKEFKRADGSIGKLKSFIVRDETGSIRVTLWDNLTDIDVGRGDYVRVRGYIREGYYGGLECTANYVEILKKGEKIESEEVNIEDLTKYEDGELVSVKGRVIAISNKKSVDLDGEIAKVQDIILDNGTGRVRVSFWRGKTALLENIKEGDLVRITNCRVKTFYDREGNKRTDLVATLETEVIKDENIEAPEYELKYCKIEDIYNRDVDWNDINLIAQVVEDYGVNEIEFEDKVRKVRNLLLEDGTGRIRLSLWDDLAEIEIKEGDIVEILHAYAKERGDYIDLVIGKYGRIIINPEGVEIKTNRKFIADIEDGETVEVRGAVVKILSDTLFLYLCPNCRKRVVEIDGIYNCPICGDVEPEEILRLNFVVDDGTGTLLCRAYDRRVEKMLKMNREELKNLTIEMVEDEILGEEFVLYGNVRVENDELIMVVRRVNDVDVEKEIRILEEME

B1: KP_PALIN_cont (ssDNA)
DNA: CTCCTGGATCGACTTCAGTCCGCTGATGATTAGATGTCGTCCTGGATCGACTTCACTCCGCACCCGCTACCAACAACAGTACCC

Legend:
[1] = system: AccuPrime Protein II (SsoSSB) (Sulfolobus solfataricus); settings: CITED Haseltine and Kowalczykowski 2002; about 3 orders of magnitude higher than AccuPrime protein I; cited from earlier work
[2] = biological target: T1, AccuPrime protein (AccuPrime Protein I; …); test: EMSA; 20 nM oligo, 0-40 nM protein; near-stoichiometric shift, super-shift, weak negative cooperativity; 20 mM Tris-HCl pH 8.4, 50 mM KCl, 1.5 mM MgCl2, 70 C; text calls it 84-mer or 86-mer; settings: tags: expressed in E. coli BL21(DE3), Ni-NTA purified; label: 5'-32P
Procedure: Single stranded DNA binding. AccuPrime protein affinity for secondary structure of the single stranded DNA was tested with the 84 mer synthetic oligonucleotide KP_PALIN_cont: 5′-CTCCTGGATCGACTTCAGTCCGCTGATGATTAGATGTCGTCCTGGATCGACTTCACTCCGCACCCGCTACCAACAACAGTACCC-3′. The oligonucleotide was radiolabeled at the 5′ end in the same manner as the 5′ (ss) substrate for the exo-nuclease activity assay above with the oligonucleotide concentration at 5 μM.
Single stranded DNA binding. The binding affinity of AccuPrime protein to single stranded DNA (ssDNA) was measured using electrophoretic mobility shift assay (EMSA) on 6% horizontal polyacrylamide gel in TBE. The ssDNA molecules used in the assay were synthetic 86-mer oligonucleotides. The 5′ radiolabeled oligonucleotides were incubated with increasing amounts of the protein in 1×PCR buffer (20 mM Tris-HCl, pH 8.4, 50 mM KCl, 1.5 mM MgCl₂) at 70° C. for 5 min, and an aliquot of the reaction mix was loaded on the gel with currents on. The electrophoresis was continued for 1 hr and the gel was autoradiographed after dried.

Molecule	Kd [1] [nM]	binding result [2]
single-stranded DNA (unspecified)	500	
B1		binds
